{
  "source": "patent US7943358B2",
  "about": "“Polymerase enhancing factor (PEF) extracts, PEF protein complexes, isolated PEF protein, and methods for purifying and identifying” (Agilent Technologies, Inc., priority 1997, dated 2011)",
  "molecules": {"B1": {"name": "PEF: polymerase enhancing factor complex purified from Pyrococcus furiosus; predominant components P50 and P45 (protein)", "chain 1": "MLHHVKLIYATKSRKLVGKKIVXXXPGSIAALDVKACEGLIRHGAEVHAVMSEAATKIIHPYAWNLPTGNPVITEITGFIEHVELAGEHENKADLILVCPATANTISKIACGIDDTPVTTVVTTAFPHIPIMIAPAMHETMYRHPIVRENIERLKKLGVEFIGPRIEEGRAKVASIDEIVYRVIKKLHKKTLEGKRVLVTAGATREYIDPIRFITNASSGKMGVALAEEADFRGAVTLIRTKGSVKAFRIRKIKLKVETVEEMLSAIENELRSKKYDVVIMAAAVSDFRPKIKAEGKIKSGRSITIELVPXNPKIIDRIKEIQPNVFLVGFKAETSKEKLIEEGKRQIERAKADLVVGNTLEAFGSEENQVVLIGRDFTKELPKMKKRELAERIWDEIEKXLS", "chain 2": "MLLPDWKIRKEILIEPFSEESLQPAGYDLRVGREAFVKGKLIDVEKEGKVVIPPREYALILTLERIKLPDDVMGDMKIRSSLAREGVIGSFAWVDPGWDGNLTLMLYNASNEPVELRYGERFVQIAFIRLEGPARNPYRGNYQGSTRLAFSKRKKL", "modifications": "not fully specified; X: residue not identified in the source", "notes": "polymerase enhancing factor complex purified from Pyrococcus furiosus; predominant components P50 and P45"}},
  "key": {"[1]": {"test": "Reverse phase HPLC analysis, reactivity with other nucleotides", "format": "biochemical", "procedure": "The similarity of P45 to dCTP deaminases prompted us to test whether dCTP or other nucleotide triphosphates were substrates of PEF/P45. PEF was incubated with dCTP or dUTP and the reaction products were separated by reverse phase HPLC. Reaction mixtures (50 μl) containing 1× cloned Pfu polymerase buffer, 10 mM dCTP or dUTP, and 700 ng PEF (or 5 μl of cloned p45 (˜100 ng) or nothing (neg. control)) were incubated at 72° C. for 1 hour. The samples were injected on a […] Waters Delta-pak C-18 column (300 angstrom/15 μm), equilibrated in 50 mM triethylammonium acetate, pH (7.0) (A). Products were eluted with acetonitrile (B) at 2 ml/min. using the following gradient: 0% B for 5 minutes, 0-10% B over 20 minutes. Absorbence of the eluate was monitored with a photodiode array detector, and peak areas were integrated at 260 nm.\nIn addition to dUTP, dCTP was also found to serve as a substrate for PEF (FIG. 17). The product of the PEF+dCTP reaction appeared to be dCMP, based upon its retention time and absorbence maxima. Although PEF utilizes dCTP, dUTP is the preferred substrate of PEF/P45. In the example shown, only 16.6% of the dCTP was converted in 1 hour under the same conditions which converted 100% dUTP (FIG. 17, panel B). […] No reactivity with PEF was detected for the following nucleotides: dGTP, dATP, dTTP, dCMP, dUMP, and rUTP under the conditions used."}, "Taq DNA polymerase": {"biological_target": "Taq DNA polymerase (Thermus aquaticus, UniProt P19821)", "sequence (P19821 whole entry)": "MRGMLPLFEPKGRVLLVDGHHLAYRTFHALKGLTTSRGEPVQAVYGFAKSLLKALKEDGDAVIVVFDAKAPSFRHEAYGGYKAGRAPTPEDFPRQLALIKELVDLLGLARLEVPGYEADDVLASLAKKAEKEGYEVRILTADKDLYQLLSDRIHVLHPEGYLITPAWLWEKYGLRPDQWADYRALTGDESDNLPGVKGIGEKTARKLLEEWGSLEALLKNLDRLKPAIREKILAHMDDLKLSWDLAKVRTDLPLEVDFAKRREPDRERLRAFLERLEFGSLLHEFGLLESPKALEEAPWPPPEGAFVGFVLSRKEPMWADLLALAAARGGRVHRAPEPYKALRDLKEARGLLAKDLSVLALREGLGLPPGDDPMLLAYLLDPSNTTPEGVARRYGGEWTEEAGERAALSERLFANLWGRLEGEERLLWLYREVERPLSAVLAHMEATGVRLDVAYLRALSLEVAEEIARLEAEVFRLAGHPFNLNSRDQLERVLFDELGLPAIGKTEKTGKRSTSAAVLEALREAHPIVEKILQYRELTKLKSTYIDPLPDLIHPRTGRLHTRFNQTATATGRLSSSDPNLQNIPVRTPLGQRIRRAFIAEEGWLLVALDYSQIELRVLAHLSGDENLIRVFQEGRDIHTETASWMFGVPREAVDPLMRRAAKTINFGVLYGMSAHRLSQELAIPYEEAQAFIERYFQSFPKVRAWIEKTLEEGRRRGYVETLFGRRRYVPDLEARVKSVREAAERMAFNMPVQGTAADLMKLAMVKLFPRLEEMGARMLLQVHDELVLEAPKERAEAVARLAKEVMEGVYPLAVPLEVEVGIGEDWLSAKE", "test": "PCR with Taq DNA polymerase", "format": "biochemical", "procedure": "FIGS. 33, 34, 35, and 36. Enhancing activity of P. furiosus PEF in PCRs conducted with Pwo (FIG. 33); JDF-3 (FIGS. 34 and 35), ES4 and Vent (FIG. 35). and Deep Vent (FIG. 36) DNA polymerases. In FIG. 33, 25 μl PCRs were conducted using the 6.2 kb test system (example 1) with 25 U/ml Pwo DNA polymerase and 1× cloned Pfu PCR buffer. 1 μl of S200-purified P. furiosus PEF (prep 1; 225 ng/μl) was added undiluted (lane 1) or diluted 1:10 (lane 2), 1:1000 (lane 3), 1:10,000 (lane 4). 1 μl of dilution buffer was added as a negative control (lane 5). In FIG. 34, a 10 kb lambda DNA-target was amplified from lambda DNA (lanes 1-4; 5-7; 11-13) or mouse genomic DNA, containing 40 copies (lanes 8-10) or 1 copy (lanes 14-16) of a lambda DNA transgene. 100 μl PCRs were conducted with 250 ng of lambda DNA (Sigma) or mouse genomic DNA and 250 ng of primers (F51-20 5′[…] (SEQ ID NO: 22); R10163-20 5′CCA-TCT-CAC-GCG-CCA-GTT-TC) (SEQ ID NO: 23). PCRs were conducted in Taq PCR buffer using 5 U Taq DNA polymerase (lanes 1-4) or 1 U JDF3 DNA polymerase (lanes 5-16). 1 μl of the following was added to PCRs: S200-purified PEF (prep. 3; 550 ng/μl PEF) diluted 1:500 (lanes 2, 12, 15), 1:100 (lanes 6, 9), 1:50 (lane 3), 1:10 (lanes 7, 10, 13, 16), or 1:5 (lane 4). 1 μl of dilution buffer was added as a negative control (lanes 1, 5, 8, 11, 14). […]"}},
  "data": [
    {"molecule": "B1", "values": [
      {"measurement": "reactivity with dGTP, dATP, dTTP, dCMP, dUMP, rUTP", "setting": "[1]", "result": "No reactivity"},
      {"measurement": "yield of PCR products generated with Taq DNA polymerase", "setting": "Taq DNA polymerase", "result": "may not enhance the yield"}
    ]}
  ]
}
